Measurements from patent publication US20210181204A1 (SYNGENTA PARTICIPATIONS, published 2021).

What was measured:
[1] = biological target: T1, mCry3A insecticidal protein (Bacillus thuringiensis subsp. …, UniProt P0A379 48-644, limits assumed); experiment: Bio-Layer Interferometry, target 15.6 nM to 1 uM
T1 construct: also called modified Cry3A
T1 sequence: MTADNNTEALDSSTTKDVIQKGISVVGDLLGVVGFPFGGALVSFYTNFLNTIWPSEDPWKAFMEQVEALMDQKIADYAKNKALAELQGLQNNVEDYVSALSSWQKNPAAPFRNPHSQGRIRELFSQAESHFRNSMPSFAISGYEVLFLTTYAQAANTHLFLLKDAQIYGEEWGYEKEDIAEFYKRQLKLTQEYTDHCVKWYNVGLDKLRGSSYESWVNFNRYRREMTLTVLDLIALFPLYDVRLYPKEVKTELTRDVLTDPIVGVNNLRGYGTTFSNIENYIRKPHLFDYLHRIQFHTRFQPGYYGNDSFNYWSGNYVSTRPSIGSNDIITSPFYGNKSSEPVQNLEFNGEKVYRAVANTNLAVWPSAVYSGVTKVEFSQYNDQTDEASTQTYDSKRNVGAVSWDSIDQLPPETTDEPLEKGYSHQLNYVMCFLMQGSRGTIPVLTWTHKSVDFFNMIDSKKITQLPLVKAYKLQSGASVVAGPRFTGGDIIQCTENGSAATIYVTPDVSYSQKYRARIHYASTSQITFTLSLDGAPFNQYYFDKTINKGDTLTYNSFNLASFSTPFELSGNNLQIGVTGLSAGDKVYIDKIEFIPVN

[2] = biological target: eCry3.1Ab hybrid insecticidal protein; experiment: Bio-Layer Interferometry, target 15.6 nM to 1 uM
[3] = biological target: Cry1Ai insecticidal protein; experiment: direct ELISA: protein coated at 500 ng/ml, 10 nM tagged synNAPS with SA-AP
[4] = biological target: T2, Cry1Ab insecticidal protein (Bacillus thuringiensis, UniProt P0A370 1-615); experiment: as above
[5] = biological target: Cry1Aa insecticidal protein (Bacillus thuringiensis subsp. aizawai, UniProt P0A367 12-1176); experiment: direct ELISA, coated protein, SA-AP, 405 nm
[6] = biological target: eCry3.1Ab hybrid insecticidal protein; experiment: direct ELISA, coated protein, SA-AP, 405 nm
[7] = biological target: T1, mCry3A insecticidal protein; experiment: direct ELISA, coated protein, SA-AP, 405 nm
[8] = biological target: Cry1Ab.1Ca insecticidal protein; experiment: direct ELISA, coated protein, SA-AP, 405 nm
[9] = biological target: T2, Cry1Ab insecticidal protein; experiment: Bio-Layer Interferometry, target 15.6 nM to 1 uM
[10] = biological target: T1, mCry3A insecticidal protein; experiment: direct ELISA on coated mCry3A
[11] = biological target: T1, mCry3A insecticidal protein; experiment: direct ELISA: mCry3A coated at 1 ug/ml, RGS-His HRP detection
[12] = biological target: T1, mCry3A insecticidal protein; experiment: direct ELISA: protein coated at 500 ng/ml, 10 nM tagged synNAPS with SA-AP
[13] = biological target: Cry1Ai insecticidal protein; experiment: direct ELISA, coated protein, SA-AP, 405 nm
[14] = biological target: T2, Cry1Ab insecticidal protein; experiment: direct ELISA, coated protein, SA-AP, 405 nm
[15] = biological target: Cry1Ab.1Ca insecticidal protein; experiment: direct ELISA: protein coated at 500 ng/ml, 10 nM tagged synNAPS with SA-AP
[16] = biological target: T2, Cry1Ab insecticidal protein; experiment: direct ELISA: Cry1Ab coated at 1 ug/ml, RGS-His HRP detection
[17] = biological target: T2, Cry1Ab insecticidal protein; experiment: direct ELISA on coated Cry1Ab, RGS-His HRP

B1: synNAPS-8 ligand (designed binder)
chain: MVKVKFHGRGEEKEVDTSKIFWVYRDGKRVLFRYDDNGKRGFGSVPEKDAPKELLDMLARAEREKK
B1: binds [1].

B2: synNAPS-10 ligand (designed binder)
chain: MVKVKFLMKGEEKEVDTSKIKWVNRHGKYVAFYYDDNGKTGGGEVREKDAPKELLDMLARAEREKK
B2: binds [2].

B3: synNAPS-3tag ligand (designed binder)
chain: MRGSHHHHHHGSVKVKFRWGGEEKEVDTSKIWYVARVGKWVLFGYDDNGKRGAGRVREKDAPKELLDMLARAEREKKLGSGLNDIFEAQKIEWH
modifications: in vivo biotinylation (E. coli BirA strain) on the C-terminal avidin-tag
notes: also called tagged synNAPS 3
With B3 the “Binding to Insecticidal Protein (read at 405 nm)” value (“Binding to Insecticidal Protein” for short) [3] was 1.5 absorbance 405 nm, the “Binding to Insecticidal Protein” value [4] was 0.75 absorbance 405 nm and the binding result [5] was “no binding (tested: 10 nM)”. B3: no binding (tested: 10 nM) [6]; no binding (tested: 10 nM) [7]; no binding (tested: 10 nM) [8].

B4: synNAPS-4 ligand (designed binder)
chain: MVKVKFKYKGEEKEVDTSKISYVQRAGKSVYFNYDDNGKTGGGRVFEKDAPKELLDMLARAEREKK
B4: binds [9].

B5: synNAPS9 variant Q8A (designed binder)
chain: RGSHHHHHHGSMVKVKFAAGGEEKEVDTSKIYRVPRHGKIVFFMYDDNGKGGFGHVTEKDAPKELLDMLARAEREKK
In the case of B5, the “binding affinity as percent of SEQ ID NO:17” value [10] is reported as about 112% and the “Binding (OD 450 nm)” value [11] is reported as 2.8 OD 450 nm.

B6: synNAPS9 variant M33A (designed binder)
chain: RGSHHHHHHGSMVKVKFAQGGEEKEVDTSKIYRVPRHGKIVFFAYDDNGKGGFGHVTEKDAPKELLDMLARAEREKK
For B6, the “binding affinity as percent of SEQ ID NO:17” value [10] was about 112% and the “Binding (OD 450 nm)” value [11] was 2.8 OD 450 nm.

B7: synNAPS9 variant T46A (designed binder)
chain: RGSHHHHHHGSMVKVKFAQGGEEKEVDTSKIYRVPRHGKIVFFMYDDNGKGGFGHVAEKDAPKELLDMLARAEREKK
B7 was tested, and the “binding affinity as percent of SEQ ID NO:17” value [10] was about 112% and the “Binding (OD 450 nm)” value [11] was 2.8 OD 450 nm.

B8: synNAPS-7 ligand (designed binder)
chain: MVKVKFKVHGKEKEVDTSKILAVARWGKAVIFAYDDNGKHGRGQVSEKDAPKELLDMLARAEREKK
B8: binds [1].

B9: synNAPS-12 ligand (designed binder)
chain: MVKVKFKLTGEEKEVDTSKIQWVARFGKFVDFLYDDNGKTGWGWVYEKDAPKELLDMLARAEREKK
B9: binds [2].

B10: synNAPS-8tag ligand (designed binder)
chain: MRGSHHHHHHGSVKVKFHGRGEEKEVDTSKIFWVYRDGKRVLFRYDDNGKRGFGSVPEKDAPKELLDMLARAEREKKLGSGLNDIFEAQKIEWH
modifications: chain 1: biotinylated in vivo on the C-terminal avidin-tag (E. coli BirA strain). The patent does not name the residue; it is presumably the tag's Lys, pos 90, written K.
notes: also called tagged synNAPS 8
With B10 the “Binding to Insecticidal Protein” value [12] was 1.6 absorbance 405 nm, the binding result [13] was “no binding (tested: 10 nM)” and the binding result [5] was “no binding (tested: 10 nM)”. B10: no binding (tested: 10 nM) [6]; no binding (tested: 10 nM) [14]; no binding (tested: 10 nM) [8].

B11: synNAPS-5 ligand (designed binder)
chain: MVKVKFVLKGEEKEVDTSKITYVARYGKFVQFDYDDNGKFGAGVVLEKDAPKELLDMLARAEREKK
B11: binds [9].

B12: synNAPS-1 ligand (designed binder)
chain: MVKVKFGPWGEEKEVDTSKIVDVWRWGKYVDFFYDDNGKVGIGSVTEKDAPKELLDMLARAEREKK
B12: binds [9].

B13: synNAPS-14 ligand (designed binder)
chain: MVKVKFKYKGEEKEVDTSKIIFVYRFGKFVMFIYDDNGKTGHGDVREKDAPKELLDMLARAEREKK
B13: binds [2].

B14: synNAPS-5tag ligand (designed binder)
chain: MRGSHHHHHHGSVKVKFVLKGEEKEVDTSKITYVARYGKFVQFDYDDNGKFGAGVVLEKDAPKELLDMLARAEREKKLGSGLNDIFEAQKIEWH
modifications: in vivo biotinylation (E. coli BirA strain) on the C-terminal avidin-tag
notes: also called tagged synNAPS 5
B14 was tested, and the “Binding to Insecticidal Protein” value [4] was 1.1 absorbance 405 nm, the “Binding to Insecticidal Protein” value [15] was 1.6 absorbance 405 nm and the binding result [13] was “no binding (tested: 10 nM)”. B14: no binding (tested: 10 nM) [5]; no binding (tested: 10 nM) [6]; no binding (tested: 10 nM) [7].

B15: synNAPS-6tag ligand (designed binder)
chain: MRGSHHHHHHGSVKVKFMRWGEEKEVDTSKITYVTRWGKTVIFYYDDNGKKGHGSVLEKDAPKELLDMLARAEREKKLGSGLNDIFEAQKIEWH
modifications: in vivo biotinylation (E. coli BirA strain) on the C-terminal avidin-tag
notes: also called tagged synNAPS 6
In the case of B15, the “Binding to Insecticidal Protein” value [12] is reported as 1.1 absorbance 405 nm, the binding result [13] is reported as “no binding (tested: 10 nM)” and the binding result [5] is reported as “no binding (tested: 10 nM)”. B15: no binding (tested: 10 nM) [6]; no binding (tested: 10 nM) [14]; no binding (tested: 10 nM) [8].

B16: synNAPS2 variant R44A (designed binder)
chain: RGSHHHHHHGSMVKVKFKYKGEEKEVDTSKIVWIGRFGKSVYFRYDDNGKTGAGAVYEKDAPKELLDMLARAEREKK
With B16 the “Binding (OD 450 nm)” value [16] was 0 OD 450 nm and the binding result [17] was “no binding”.

B17: synNAPS2 variant S29A (designed binder)
chain: RGSHHHHHHGSMVKVKFKYKGEEKEVDTSKIVWIGRFGKAVYFRYDDNGKTGAGRVYEKDAPKELLDMLARAEREKK
B17 was tested, and the “Binding (OD 450 nm)” value [16] was 0 OD 450 nm and the binding result [17] was “no binding”.

B18: synNAPS2 variant W22A (designed binder)
chain: RGSHHHHHHGSMVKVKFKYKGEEKEVDTSKIVAIGRFGKSVYFRYDDNGKTGAGRVYEKDAPKELLDMLARAEREKK
With B18 the “Binding (OD 450 nm)” value [16] was 0 OD 450 nm and the binding result [17] was “no binding”.

B19: synNAPS2 variant Y31A (designed binder)
chain: RGSHHHHHHGSMVKVKFKYKGEEKEVDTSKIVWIGRFGKSVAFRYDDNGKTGAGRVYEKDAPKELLDMLARAEREKK
In the case of B19, the “Binding (OD 450 nm)” value [16] is reported as 0 OD 450 nm and the binding result [17] is reported as “no binding”.

B20: synNAPS-3 ligand (designed binder)
chain: MVKVKFRWGGEEKEVDTSKIWYVARVGKWVLFGYDDNGKRGAGRVREKDAPKELLDMLARAEREKK
B20: binds [9].

B21: synNAPS-7tag ligand (designed binder)
chain: MRGSHHHHHHGSVKVKFKVHGKEKEVDTSKILAVARWGKAVIFAYDDNGKHGRGQVSEKDAPKELLDMLARAEREKKLGSGLNDIFEAQKIEWH
modifications: in vivo biotinylation (E. coli BirA strain) on the C-terminal avidin-tag
notes: also called tagged synNAPS 7
For B21, the “Binding to Insecticidal Protein” value [12] was 0.7 absorbance 405 nm, the binding result [13] was “no binding (tested: 10 nM)” and the binding result [5] was “no binding (tested: 10 nM)”. B21: no binding (tested: 10 nM) [6]; no binding (tested: 10 nM) [14]; no binding (tested: 10 nM) [8].

B22: synNAPS-6 ligand (designed binder)
chain: MVKVKFMRWGEEKEVDTSKITYVTRWGKTVIFYYDDNGKKGHGSVLEKDAPKELLDMLARAEREKK
B22: binds [1].

B23: synNAPS-11 ligand (designed binder)
chain: MVKVKFGLGGEEKEVDTSKIRRVLRLGKLVSFTYDDNGKIGLGDVHEKDAPKELLDMLARAEREKK
B23: binds [2].
